The series deals with T1, (His)6-YycF, non-phosphorylated response regulator (Streptococcus pneumoniae TIGR4) (UniProt A0A0H2UQ68).
T1 sequence: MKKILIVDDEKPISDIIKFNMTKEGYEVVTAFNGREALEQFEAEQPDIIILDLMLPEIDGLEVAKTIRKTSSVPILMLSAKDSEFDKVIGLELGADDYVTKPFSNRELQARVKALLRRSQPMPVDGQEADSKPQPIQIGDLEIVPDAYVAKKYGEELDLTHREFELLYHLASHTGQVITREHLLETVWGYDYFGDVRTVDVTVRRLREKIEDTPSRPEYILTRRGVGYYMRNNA
Description: EMSA. The following applies: EMSA: 50 mM Tris-HCl pH 7.8, 500 mM NaCl, 4 mM MgCl2, 20 uL, 0.5-1.0 nM DNA, 0°C 30 min; 5% native PAGE, TBE, 4°C. (A gel shift assay detects complexes by their altered migration in electrophoresis.)

For “CATTCGGAGAGAAGAAGACCTAAATTTACAGGAAAATAAAAAATACTTGCATCATTCTTTGAATTTTGATATAATTCTTTCTGTCAAATGTTTTGATTGTAAAAGTTTTTTGAAGAAGGAGGGATATGAAAAATGGACTACCAACGAATCAATGAATATTTAACATCTATATTTAACAATGTCCTTGTAATTGAGG (double strand) [amplicon A (PFabT promoter region)]”, the binding entry is “binds”.

These data come from article PMC4996995.
